Source: patent US5985836A, “Alpha-1 proteinase inhibitor binding peptides” (Bayer Corporation, priority 1998, dated 1999)
Ends that are not written are not given here.

How the values were obtained:
[1] = target: T1, A1PI (Homo sapiens, UniProt P01009); assay: Capture and elution of active A1PI with 2M urea buffer (elastase inhibition activity assay and immunonephelometry); format: binding; conditions: 4° C.
T1 construct: Human plasma is currently the only approved source of therapeutic AlPI

[2] = test system: Immunoglobulin A (IgA); assay: Purification from Effluent II+III, IgA mass balance; format: binding, human; conditions: 1 ml Eff. II+III, 4° C.
Procedure, shortened: (§1)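 Peptide-ligand columns were loaded with 1 ml Cohn Effluent II+III (20% v/v ethanol, 20-25 mg/ml hSA, ~1 mg/ml A1PI, other plasma proteins at 0.1-1 mg/ml) using a 10 min residence time at 4° C. Step elutions at 865 μl/min used 1M NaCl, 3M NaCl, then 2% acetic acid, and protein mass balances were tracked across fractions.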

[3] = test system: Immunoglobulin G (IgG); assay: Purification from Effluent II+III, IgG mass balance; format: binding, human; conditions: 1 ml Eff. II+III, 4° C.
Procedure, shortened: as §1

[4] = target: T1, A1PI; assay: A1PI binding on peptide-resin column, injection of 1 mg A1PI in equilibration buffer; conditions: 1 mg A1PI in equilibration buffer
Procedure, shortened: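 Peptides synthesized on A-Totda-Toyopearl chelate resin (0.1 mmole/g) packed in 0.4×5 cm columns; 1 mg A1PI injected in equilibration buffer at 4 °C or 20 °C, 865 or 523 μl/min. Flowthrough, 1M/3M NaCl washes and 2% acetic acid eluate quantified by A280 or immunonephelometry as percent of total eluted.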

[5] = target: T1, A1PI; assay: A1PI purification from 5 mg hSA + 1 mg A1PI on peptide column, A1PI mass balance; format: binding; conditions: A1PI, 5 mg hSA + 1 mg A1PI; for Percent Eluted by Fraction, 1M NaCl / Percent Eluted by Fraction, 2% Ac. Acid / Percent Eluted by Fraction, 3M NaCl / Percent Eluted by Fraction, Flow: relative to total eluted
Procedure, shortened: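 Peptides on A-Totda-Toyopearl resin (0.1 mmole/g) in 0.4×5 cm columns; 5 mg hSA + 1 mg A1PI loaded at 4 °C or 20 °C with 10 min residence (17 μl/min). Steps of 1M and 3M NaCl, then 2% acetic acid; fractions quantified by immunonephelometry for mass balance.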

[6] = target: T1, A1PI; assay: Purification of A1PI from Effluent II+III on peptide column, A1PI mass balance; format: binding; conditions: A1PI, 1 ml Eff. II+III, 4° C.
Procedure, shortened: as §1

[7] = target: T2, apolipoprotein alpha-1 (Apo A-1) (Homo sapiens, UniProt P02647); assay: Purification from Effluent II+III, Apo A-1 mass balance; format: binding; conditions: 1 ml Eff. II+III, 4° C.
T2 construct: Eff; II+III is a process intermediate in the Cohn plasma fractionation process; tissue Bayer Corporation (Clayton, N.C.); host or cells: plasma fraction: Cohn Effluent II+III
T2 sequence (P02647 19-267): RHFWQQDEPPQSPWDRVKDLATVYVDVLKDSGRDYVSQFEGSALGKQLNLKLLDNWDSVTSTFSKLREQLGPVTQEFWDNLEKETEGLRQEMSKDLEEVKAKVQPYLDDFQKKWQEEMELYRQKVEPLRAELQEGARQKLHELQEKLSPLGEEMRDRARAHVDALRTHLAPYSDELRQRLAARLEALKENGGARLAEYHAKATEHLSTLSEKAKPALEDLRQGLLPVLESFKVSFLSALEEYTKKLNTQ
Procedure, shortened: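 Mass balance per protein was determined over the load and each step eluate (1M NaCl, 3M NaCl, 2% acetic acid) of peptide columns challenged with 1 ml Effluent II+III. The feed contained 20% ethanol and 20-25 mg/ml hSA, the flow was 865 μl/min after a 10 min residence, and the temperature was 4° C.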

[8] = * as in Tables 4, 5 (below detection limit)
[9] = 20° C., * Below detection limit

T1 sequence (P01009 25-418): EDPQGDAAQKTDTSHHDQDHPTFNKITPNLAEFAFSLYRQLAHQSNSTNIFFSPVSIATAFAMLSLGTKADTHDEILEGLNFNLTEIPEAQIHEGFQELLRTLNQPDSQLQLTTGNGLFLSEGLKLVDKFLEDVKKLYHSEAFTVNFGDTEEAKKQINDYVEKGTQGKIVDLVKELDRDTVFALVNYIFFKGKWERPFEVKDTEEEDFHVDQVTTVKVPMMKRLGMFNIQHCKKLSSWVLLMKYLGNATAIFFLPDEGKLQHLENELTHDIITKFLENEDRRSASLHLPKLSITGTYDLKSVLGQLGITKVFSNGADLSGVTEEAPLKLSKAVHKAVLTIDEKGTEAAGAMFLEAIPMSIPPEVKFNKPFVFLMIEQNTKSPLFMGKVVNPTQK

RFIYYT
Mass A1PI in Urea Eluate (mg), Activity ([1]; 1 mg A1PI, eluted with 2M urea, pH 6, elastase inhibition activity assay): 0.67 mg
Mass A1PI in Urea Eluate (mg), Nephelometry ([1]; 1 mg A1PI, eluted with 2M urea, pH 6, immunonephelometry): 0.80 mg
Specific Activity ([1]; mass of A1PI by activity assay relative to immunonephelometry, urea eluate): 0.84 mg/mg
Percent Eluted by Fraction, 1M NaCl [2]: 31%
Percent Eluted by Fraction, 2% Acetic Acid [2]: 38%
Percent Eluted by Fraction, 3M NaCl [2]: 0%
Percent Eluted by Fraction, Flow [2]: 31%
Mass Protein per Eluate Fraction, 1M NaCl [2, 8]: 0.10 mg
Mass Protein per Eluate Fraction, 2% Acetic Acid [2, 8]: 0.12 mg
Mass Protein per Eluate Fraction, Flow [2, 8]: 0.10 mg
Percent Eluted by Fraction, 1M NaCl [3]: 7%
Percent Eluted by Fraction, 2% Acetic Acid [3]: 7%
Percent Eluted by Fraction, 3M NaCl [3]: 0%
Percent Eluted by Fraction, Flow [3]: 86%
Mass Protein per Eluate Fraction, 1M NaCl [3, 8]: 0.02 mg
Mass Protein per Eluate Fraction, 2% Acetic Acid [3, 8]: 0.02 mg
Mass Protein per Eluate Fraction, Flow [3, 8]: 0.23 mg
Percent A1PI Eluted by Fraction Based on Absorbance at 280 nm, 1M NaCl ([4]; 4° C.): 57%
Percent A1PI Eluted by Fraction Based on Absorbance at 280 nm, 2% Acetic Acid ([4]; 4° C.): 43%
Percent A1PI Eluted by Fraction Based on Absorbance at 280 nm, Flowthrough ([4]; 4° C.): 0%
Percent A1PI Eluted by Fraction, 1M NaCl ([4]; 20° C.): 64%
Percent A1PI Eluted by Fraction, 2% Acetic Acid ([4]; 20° C.): 36%
Percent A1PI Eluted by Fraction, Flowthrough ([4]; 20° C.): 0%
Mass Protein per Eluate Fraction, 1M NaCl ([5]; 4° C., * Below detection limit): 0.27 mg
Mass Protein per Eluate Fraction, 2% Ac. Acid ([5]; 4° C., * Below detection limit): 0.64 mg
Mass Protein per Eluate Fraction, 3M NaCl ([5]; 4° C., * Below detection limit): 0.04 mg
Mass Protein per Eluate Fraction, Flow ([5]; 4° C., * Below detection limit): 0.03 mg
Percent Eluted by Fraction, 1M NaCl ([5]; 4° C.): 27%
Percent Eluted by Fraction, 2% Ac. Acid ([5]; 4° C.): 66%
Percent Eluted by Fraction, 3M NaCl ([5]; 4° C.): 4%
Percent Eluted by Fraction, Flow ([5]; 4° C.): 3%
Mass Protein per Eluate Fraction, 1M NaCl [5, 9]: 0.11 mg
Mass Protein per Eluate Fraction, 2% Ac. Acid [5, 9]: 0.44 mg
Mass Protein per Eluate Fraction, Flow [5, 9]: 0.29 mg
Percent Eluted by Fraction, 1M NaCl ([5]; 20° C.): 12%
Percent Eluted by Fraction, 2% Ac. Acid ([5]; 20° C.): 53%
Percent Eluted by Fraction, 3M NaCl ([5]; 20° C.): 0%
Percent Eluted by Fraction, Flow ([5]; 20° C.): 35%
Percent Eluted by Fraction, 1M NaCl [6]: 5%
Percent Eluted by Fraction, 2% Acetic Acid [6]: 80%
Percent Eluted by Fraction, 3M NaCl [6]: 0%
Percent Eluted by Fraction, Flow [6]: 15%
Mass Protein per Eluate Fraction, 1M NaCl [6, 8]: 0.05 mg
Mass Protein per Eluate Fraction, 2% Acetic Acid [6, 8]: 0.81 mg
Mass Protein per Eluate Fraction, Flow [6, 8]: 0.15 mg
Percent Eluted by Fraction, 1M NaCl [7]: 0%
Percent Eluted by Fraction, 2% Acetic Acid [7]: 100%
Percent Eluted by Fraction, 3M NaCl [7]: 0%
Percent Eluted by Fraction, Flow [7]: 0%
Mass Protein per Eluate Fraction, 2% Acetic Acid [7, 8]: 0.37 mg
